Assay [1] has as its target BCL2 peptide Ac-…-amide (amino acids 41-54 of human BCL2 with linkers) (human). The experiment in a line: chromogenic IHC, aggregate of 10 assays; BCL2 peptide 2.5E-05 M as formulated.
Assay [2] shares this target. In words: chromogenic IHC, aggregate of 10 assays.
Assay [3] has as its target Bovine serum albumin (BSA; Ultra Pure) (bovine) (UniProt P02769). The experiment in a line: chromogenic IHC on TMA, cores without peptide.
Assay [4] addresses BCL2 peptide Ac-…-amide (amino acids 41-54 of human BCL2 with linkers) (human). In words: chromogenic IHC, aggregate of 10 assays; BCL2 peptide 2.5E-08 M as formulated.
Assay [5] has the same target. In words: chromogenic IHC, aggregate of 10 assays; BCL2 peptide 2.5E-06 M as formulated.
The target of assay [6] is BCL2 peptide variant with N-terminal arginine (R-C) (human). In words: chromogenic IHC with clone 124 on peptide/BSA gel TMA.
Assay [7] concerns the target Bovine serum albumin (BSA; Ultra Pure) (bovine) (UniProt P02769). The experiment in a line: chromogenic IHC, aggregate of 10 assays; cores without peptide.
The target in assay [8] is BCL2 peptide Ac-…-amide (amino acids 41-54 of human BCL2 with linkers) (human). The experiment in a line: chromogenic IHC on BCL2 peptide TMA with or without prior antigen retrieval.
For assay [9] the target is unchanged. The experiment in a line: chromogenic IHC, aggregate of 10 assays; BCL2 peptide 2.5E-04 M as formulated.
In assay [10] the target is Bovine serum albumin (BSA; Ultra Pure) (bovine) (UniProt P02769). In words: chromogenic IHC, aggregate of 10 assays; BSA only cores.
The target of assay [11] is BCL2 peptide Ac-…-amide (amino acids 41-54 of human BCL2 with linkers) (human). The experiment in a line: chromogenic IHC, aggregate of 10 assays; BCL2 peptide 2.5E-07 M as formulated.
Assay [12] has the same target. In words: IHC with clone 124 on donor block sections, alternative fixatives.
The target of assay [13] is Bovine serum albumin (BSA; Ultra Pure) (bovine) (UniProt P02769). In words: immunofluorescent IHC on TMA, cores without peptide.
Assay [14] addresses BCL2 peptide Ac-…-amide (amino acids 41-54 of human BCL2 with linkers) (human). In words: chromogenic IHC on peptide/BSA gel TMA, antigen concentration at half-maximum signal.
For assay [15], the target named is MYC peptide Ac-…-amide (amino acids 9-24) (human). In words: IHC with clone Y69 on donor block sections, alternative fixatives.
For assay [16] the target is unchanged. In words: chromogenic IHC on BCL2/MYC peptide TMA.

Some results are limits rather than exact numbers.

Three substances from patent US20200292536A1 can be followed below.

BCL2 peptide Ac-…-amide (amino acids 41-54 of human BCL2 with linkers) (human), sequence (peptide, as listed by the source): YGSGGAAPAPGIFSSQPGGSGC
UniProt P02769, sequence (P02769 25-607 limits assumed): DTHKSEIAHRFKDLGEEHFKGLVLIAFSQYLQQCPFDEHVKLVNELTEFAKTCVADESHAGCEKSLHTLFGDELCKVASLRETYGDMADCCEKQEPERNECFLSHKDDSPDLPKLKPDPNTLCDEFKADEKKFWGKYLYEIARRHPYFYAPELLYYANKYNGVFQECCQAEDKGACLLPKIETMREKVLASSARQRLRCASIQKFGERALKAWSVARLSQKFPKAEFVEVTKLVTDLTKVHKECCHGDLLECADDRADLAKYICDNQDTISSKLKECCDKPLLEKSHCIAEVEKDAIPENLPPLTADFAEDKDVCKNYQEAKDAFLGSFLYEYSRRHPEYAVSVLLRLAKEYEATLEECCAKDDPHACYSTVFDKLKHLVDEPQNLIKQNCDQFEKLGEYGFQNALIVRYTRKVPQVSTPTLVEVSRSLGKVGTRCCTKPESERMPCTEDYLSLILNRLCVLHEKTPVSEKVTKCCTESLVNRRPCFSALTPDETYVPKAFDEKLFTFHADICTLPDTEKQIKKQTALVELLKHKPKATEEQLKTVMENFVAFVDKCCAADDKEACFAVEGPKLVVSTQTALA
BCL2 peptide variant with N-terminal arginine (R-C) (human), sequence (peptide, as listed by the source mutant): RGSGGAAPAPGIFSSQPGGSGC
MYC peptide Ac-…-amide (amino acids 9-24) (human), sequence (peptide, as listed by the source): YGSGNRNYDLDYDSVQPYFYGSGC

“CONFIRM anti-bcl-2 (124) Mouse Monoclonal Primary Antibody”: the Intensity Mean (pixel intensity units) in [1] worked out at 202; in assay [4], 6.1; in [5] it was 105; in [9] it was 212; in [10], 4.8; in [11], 18. Besides, the limit of detection (LOD), peptide concentration in [2] came out at 230 nM. The substance also returned a limit of detection (LOD), signal in assay [2] of 16 units. Also, in [3], the non-specific signal in cores containing no added peptide, % of the maximum detectable signal amounted to 2.7%. In [6], this substance came in with an ACHM (antigen concentration at half-maximum signal) of 443 nM. Besides, the ACHM, fold lower than the original Y-C variant in assay [6] turned out to be 6 fold. The same substance yielded a limit of blank (LOB) in assay [7] of 8 units. The fold signal strength with against without antigen retrieval in assay [8] came out at 6 fold. Besides, in [12], the fold signal, formaldehyde fixation against zinc fixation during heating came out at 10 fold. This substance also came in with a non-specific signal in cores containing no added peptide, fold lower than in the chromogenic clone 124 assay in [13] of 1000 fold.

For the substance “rabbit anti-human BCL2 clone EPR17509 (antibody)”, the non-specific signal in cores containing no added peptide, % of the maximum detectable signal in assay [3] turned out to be 23%. In [14], this substance returned an ACHM, fold lower than the ACHM for the chromogenic clone 124 assay of 8 fold and an ACHM, fold lower than the fluorescent clone 124 assay of more than 50 fold.

In the case of “rabbit anti-human MYC clone Y69 (antibody)”, the fold signal, formaldehyde fixation against zinc fixation during heating in [15] is 10 fold. The same substance registered an ACHM, fold lower than the BCL2 protocol (clone 124 on BCL2 peptide) in [16] of 4 fold.
